Data set [1] is described as follows: In vitro glycosylation of violacein by purified UGT enzymes (% conversion). Format: biochemical. The note with it: for Product % production: Mono-glucoside / Product % production: Total conversion / Product % production: Di-glucoside / Product % production: Penta-glucoside / Product % production: Tetra-glucoside / Product % production: Tri-glucoside: 350 μM violacein, 24 h incubation at 30° c. The method, then:
(§1) Glycosyltransferase (UGT) enzymes were produced and purified as follows. 5 mL of 2× concentrated LB medium+appropriate antibiotic (50 μg/mL) was inoculated with E. coli XJb (DE3) strains expressing a plasmid of interest and incubated overnight at 30° C. with shaking. The following day, 50 ml TB medium+antibiotic in 250 ml baffled flasks was inoculated with 0.5 mL overnight cell culture and incubated for 3.5 hrs at 30° C. The cell cultures were then induced with 3 mM arabinose, 0.1 mM IPTG and Incubated for 24 h at 25° C., with shaking. The following day, the cells were collected by centrifugation at 6500×g for 10 mins at 4° C. Cells were resuspended in 5 mL ice-cold protein extraction buffer (50 mM Tris-HCl pH7.4+1 mM phenylmethanesulfonyl fluoride+1 cOmplete™, mini, EDTA-free Protease Inhibitor Cocktail tablet (Roche). The resuspended material was transferred to five 1.5 mL eppendorf tubes and kept at −80° C. for at least 15 mins. The tubes were then thawed at room temperature, as the tubes were thawing the following reagents were added; 2.6 mM MgCl2, 1 mM CaCl2, 300 U/mL DNase solution (DENARASE®, C-lecta) and 0.2 mg/mL lysozyme (Sigma) dissolved in MilliQwater. Tubes were gently inverted to mix then were incubated for 10-15 mins at 37° C. […] of 4× Binding buffer was then added to the tubes (to final concentration of 50 mM Tris-HCl pH7.4, 10 mM imidazole, 500 mM NaCl and the pH adjusted to 7.4 with HCl). The mix was centrifuged at 10000×g for 30 mins at 4° C., the supernatant transferred to a fresh eppendorf tubes and centrifuged again to remove any remaining cellular debris at 10000×g for 30 minutes at 4° C. While the enzyme prep was centrifuging, HisPur 0.2 ml spin column (Thermo Scientific) are prepared as instructed by manufacturer. HisPur column was washed with MilliQ water and equilibrated with two resin-bed volumes of 1×his-binding buffer two times. HisPur column was centrifuged at 700×g for 2 minutes to remove buffer. 600 μL of collected supernatant from the centrifuged enzyme preparation was transferred to the HisPur column and then incubated at 4° C. with gentle shaking by inversion for 30 minutes. After 30 minutes, the unbound protein was removed by centrifugation 700×g for 2 min. The remaining 600 μL of collected supernatant from the centrifuged enzyme preparation was loaded to the HisPur column and incubated again at 4° C. with shaking. Unspecific binding of other proteins was removed by washing twice with 1× binding buffer (50 mM Tris-HCl, 0.5M NaCl, 10 mM Imidazole, pH 7.4). Enzyme was resuspended in 200 μl elution buffer for 2 minutes before elution by centrifugation (700×g for 2 minutes at 4° C.). Enzymes were used immediately in in vitro enzyme assays or stored at −20° C. in 50% glycerol until needed.
(§2) For in vitro studies of glycosyl transferase performance in glycosylating violacein and violacein derivatives, purified glycosyl transferases were prepared as described in Example 4 and in vitro enzyme assays run as described below in Table 19.
(§3) The reaction mixture was scaled up or down as required. The reaction mixture was incubated without shaking at 30° C. for 24 hours. Extraction and analysis were performed as described in Examples 3 and 5. To confirm the identity of the produced glycosides LC-MS/QTOF was used as described above to confirm the expected mass and fragmentation pattern of each detected molecule. Quantification of violacein glycoside or other violacein derivative glycoside production was done by comparing the peak area of the substrate and the produced glycoside with authentic analytical standards (where available), where a standard was unavailable, quantification was achieved by comparing with an authentic analytical standard of the substrate. % Conversion of a substrate to a glycoside by specific Glycosyl transferases was calculated by measuring the decrease in substrate and increase in product after 24 h incubation. […]

A short description of data set [2]: In vitro glycosylation of proviolacein by purified UGT enzymes (% conversion). The note with it: 350 μM proviolacein, 24 h incubation at 30° c. Format: biochemical. The protocol:
as §1, §2, §3

B1: Cp73B: glycosyltransferase from Carica papaya (SEQ ID NO: 72) (protein, listed as Carica papaya)
chain: MGSEVLHHDYSQLNIFFFPFMAHGHMIPTLDMAKLFATHGAKTSIITTPLNLPFFSKSIERFSKQTGLEIGVKLLNFPSVEVGLPSGCENADSLPAGEPLIVNKFFAAAGMLKDPLERLLQEFKPDCLIADMFFPWTTDAAAKFDIPRLVFHGTSFFALSASECIRLYTPFNNVSSDSEPFLVPTLPDEIRLTRNQLADFAMKEGDENGIHRLIKEAKESELKSYGVVVNSFYELEPAYADHYRNFLKRKAWHIGPVSLCNKTVEDKAERGKRASIDEDECLKWLNSKAPNSVIYICFGSMANFNSAQLMEIATALDASGQEFIWVVRREKNENNQEDWLPEGFEQRTEGKGLIIRGWAPQVLILEHEAVGGFVTHCGWNSTLEGVTAGMPMVTWPVSAEQFYNEKLVTEVLKIGLSVGVKKWVRSEGDFVSREKVEQAVREIMVGSEAVERRMRAKAMADMARAAVEKGGSSYNDLNALLREVSLMRRQQSQNQ
Regarding B1, in data set [1], the “Product % production: Mono-glucoside” value is reported as 25.65% and the “Product % production: Total conversion” value was determined as 25.65%. Also, in data set [2], the “Product % production: Mono-glucoside” value was determined as 8.12% and the “Product % production: Total conversion” value is on record as 8.12%.

B2: Bs109A1: glycosyltransferase from Bacillus subtilis (SEQ ID NO: 70) (protein, listed as Bacillus subtilis)
chain: MKKHHISMINIPAYGHVNPTLALVEKLCEKGHRVTYATTEEFAPAVQQAGGEALIYHTSLNIDPKQIREMMEKNDATLSLLKESLSILPQLEELYKDDQPDLIIYDFVALAGKLFADKLNVPVIKLCSSYAQNESFQLGNEDMLKKIKEAEAEFKAYLEQEQLPAVSFEQLAVPEALNIVFMPKSFQIQHETFDDRFCFVGPSLGKRTEQESLLIDKGDRPLMLISLGTAFNAWPEFYKMCIDAFRDSSWQVIMSVGKSIDPESLDDTPANFTIRQSVPQLEVLAKADLFISHGGMNSTMEAMNAGVPLVVIPQMYEQELTAKRVDELGLGVYLQREEVTVSKLQEAVQAVSGDQELLSRVKSMQKDVKEAGGAERAAAEIEAFMKKSAVPQ
For the molecule B2, in data set [1], the “Product % production: Di-glucoside” value is 10.57%, the “Product % production: Mono-glucoside” value came to 11.05%, the “Product % production: Penta-glucoside” value came to 11.46% and the “Product % production: Tetra-glucoside” value came to 14.10%. Further, in data set [1], the “Product % production: Total conversion” value is 62.47% and the “Product % production: Tri-glucoside” value worked out at 15.29%. Besides, in data set [2], the “Product % production: Di-glucoside” value came to 1.45%, the “Product % production: Mono-glucoside” value was determined as 2.45%, the “Product % production: Penta-glucoside” value is on record as 2.11% and the “Product % production: Tetra-glucoside” value is reported as 1.98%. Besides, in data set [2], the “Product % production: Total conversion” value is 10.11% and the “Product % production: Tri-glucoside” value came out at 2.12%.

B3: Pt73Y: glycosyltransferase enzyme from Populus trichocarpa (SEQ ID NO. 64, 66) (protein, listed as Populus trichocarpa)
chain: MGSLGHQLHIFFLPFFAHGHMIPSVDMAKLFASRGIKTTIITTPLNAPFFSKTIQKTKELGFDINILTIKFPAAEAGLPEGYENTDAFIFSENAREMTIKFIKATTFLQAPFEKVLQECHPDCIVADVFFPWATDAAAKFGIPRLVFHGTSNFALSASECVRLYEPHKKVSSDSEPFVVPDLPGDIKLTKKQLPDDVRENVENDFSKFLKASKEAELRSFGVVVNSFYELEPAYADYYKKVLGRRAWNVGPVSLCNRDTEDKAGRGKETSIDHHECLKWLDSKKPNSVVYICFGSTTNFSDSQLKEIAAGLEASGQQFIWVVRRNKKGQEDKEDWLPEGFEERMEGVGLIIRGWAPQVLILDHEAIGAFVTHCGWNSTLEGITAGKPMVTWPIFAEQFYNEKLVTDVLKTGVGVGVKEWFRVHGDHVKSEAVEKTITQIMVGEEAEEMRSRAKKLGETARKAVEEGGSSYSDFNALIEELRWRRP
Consider B3, for which, in data set [1], the “Product % production: Di-glucoside” value worked out at 8.95%, the “Product % production: Mono-glucoside” value turned out to be 8.69%, the “Product % production: Penta-glucoside” value came to 10.98% and the “Product % production: Tetra-glucoside” value came to 10.31%. Besides, in data set [1], the “Product % production: Total conversion” value is recorded as 54.41% and the “Product % production: Tri-glucoside” value was 15.47%. Also, in data set [1] (24 h incubation at 30° C., HPLC), the “reduction in violacein concentration compared to the no-enzyme control” value stood at 75%. Also, in data set [2], the “Product % production: Di-glucoside” value is 0.15%, the “Product % production: Mono-glucoside” value is listed as 0.12%, the “Product % production: Penta-glucoside” value stood at 0.78% and the “Product % production: Tetra-glucoside” value worked out at 1.22%. In data set [2], the “Product % production: Total conversion” value came to 3.4% and the “Product % production: Tri-glucoside” value stood at 1.13%.

B4: Bs109_1: glycosyltransferase from Bacillus subtilis (SEQ ID NO: 68) (protein, listed as Bacillus subtilis)
chain: MKKYHISMINIPAYGHVNPTLALVEKLCEKGHRVTYATTEEFAPAVQQAGGEALLYHTSLNIDPKQIREMMEKNDAPLSLLKESLSILPQLEELYKDDQPDLIIYDFVALAGKLFAEKLNVPVIKLCSSYAQNESFQLGNEDMLKKIREAEAEFKAYLEQEKLPAVSFEQLAVPEALNIVFMPKSFQIQHETFDDRFCFVGPSLGERKEKESLLIEKDDRPLMLISLGTAFNAWPEFYKMCIKAFRDSSWQVIMSVGKAIDPESLEDIPANFTIRQSVPQLEVLEKADLFISHGGMNSTMEAMNAGVPLVVIPQMYEQELTANRVDELGLGVYLPKEEVTVSSLQEAVQAVSSDQELLSRVKNMQKDVKEAGGAERAAAEIEAFMKKSAVPQ
Turning to B4, in data set [1], the “Product % production: Mono-glucoside” value turned out to be 9.02%, the “Product % production: Tetra-glucoside” value worked out at 11.12%, the “Product % production: Total conversion” value stood at 30.93% and the “Product % production: Tri-glucoside” value was found to be 10.80%. In data set [2], the “Product % production: Mono-glucoside” value was 2.12%, the “Product % production: Tetra-glucoside” value is listed as 3.34%, the “Product % production: Total conversion” value is given as 6.69% and the “Product % production: Tri-glucoside” value worked out at 1.23%.

Values taken from patent US20260092179A1, “GENETICALLY MODIFIED HOST CELLS PRODUCING VIOLACEIN, ANALOGUES, AND DERIVATIVES THEREOF” (OCTARINE BIO APS, priority 2022, published 2026).
